Data published in US20230381281A1, “PHARMACEUTICAL COMPOSITION COMPRISING GLUCAGON/GLP-1/GIP TRIPLE AGONIST OR LONG-ACTING CONJUGATE THEREOF FOR PREVENTING OR TREATING LUPUS-RELATED DISEASES” (HANMI PHARM. CO., LTD., priority 2020, published 2023).
Bridge positions count the residues as written; N and C are the ends. Square brackets hold non-standard residues; d marks the D form. Ends that are not written are not given here. * marks the point of attachment. Acetyl(2-(4-imidazolyl)) = O=C(Cc1c[nH]cn1)*; Aib = CC(C)(N)C(=O)O

T1: human GIP receptor (human, UniProt P48546 22-466)
T1 sequence (looked up): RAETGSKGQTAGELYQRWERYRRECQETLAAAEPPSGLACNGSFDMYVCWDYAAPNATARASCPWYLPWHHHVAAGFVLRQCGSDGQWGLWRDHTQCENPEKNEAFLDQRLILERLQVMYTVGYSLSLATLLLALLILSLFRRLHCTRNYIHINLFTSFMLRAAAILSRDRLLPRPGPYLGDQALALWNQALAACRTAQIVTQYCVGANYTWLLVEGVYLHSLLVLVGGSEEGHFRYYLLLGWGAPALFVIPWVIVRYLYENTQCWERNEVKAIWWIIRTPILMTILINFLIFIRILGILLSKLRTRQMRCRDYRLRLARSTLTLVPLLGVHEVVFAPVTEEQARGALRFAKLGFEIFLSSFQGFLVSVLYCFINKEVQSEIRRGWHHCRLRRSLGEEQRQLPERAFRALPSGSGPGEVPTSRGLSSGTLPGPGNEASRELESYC


Legend:
Assay in all cases: cell-based or functional assay
[1] = biological target: human GLP-1 receptor (human, UniProt P43220 24-463)
[2] = biological target: human GCG receptor (human, UniProt P47871 26-477)
[3] = biological target: T1, human GIP receptor

Sequence of human GCG receptor (P47871 26-477): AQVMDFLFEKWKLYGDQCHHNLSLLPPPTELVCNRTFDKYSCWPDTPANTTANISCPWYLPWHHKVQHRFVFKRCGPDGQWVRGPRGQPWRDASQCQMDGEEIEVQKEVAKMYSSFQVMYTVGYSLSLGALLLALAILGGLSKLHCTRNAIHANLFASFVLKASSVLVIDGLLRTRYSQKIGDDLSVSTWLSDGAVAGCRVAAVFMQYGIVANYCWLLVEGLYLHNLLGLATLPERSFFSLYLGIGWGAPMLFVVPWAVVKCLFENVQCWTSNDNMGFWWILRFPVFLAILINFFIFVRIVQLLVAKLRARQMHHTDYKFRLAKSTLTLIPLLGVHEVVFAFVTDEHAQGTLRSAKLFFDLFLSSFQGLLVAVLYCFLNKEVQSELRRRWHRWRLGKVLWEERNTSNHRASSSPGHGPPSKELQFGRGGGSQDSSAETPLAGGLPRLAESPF

Binder	In vitro activity compared to native peptide (%) vs GLP-1 [1] [%]	In vitro activity compared to native peptide (%) vs Glucagon [2] [%]	In vitro activity compared to native peptide (%) vs GIP [3] [%]
H[Aib]QGTFTSDYSKCLDEKRAKEFVQWLLDHHPSSGQPPPS (bridge 16-20) [Triple agonist of SEQ ID NO: 65]	95.4	25.2	11.6
Y[Aib]QGTFTSDYSKYLDEKAAKDFVQWLLDHHPSSGQPPPSC (bridge 16-20) [Triple agonist of SEQ ID NO: 77]	38.7	12.2	35.5
Y[Aib]QGTFTSDYSKYLDECAAKEFVQWLLDHHPSSGQPPPS (bridge 16-20) [Triple agonist of SEQ ID NO: 64]	64.6	60.1	92.9
{Acetyl(2-(4-imidazolyl))}-[Aib]QGTFTSDKSKYLDERAAQDFVQWLLDGGPSSGAPPPS [Triple agonist of SEQ ID NO: 62]	5.2	< 0.1	< 0.1
{Acetyl(2-(4-imidazolyl))}-[Aib]QGTFTSDYSIAMDEIACKDFVNWLLNTK (bridge 15-19) [Triple agonist of SEQ ID NO: 61]	59.8	< 0.1	2.8
Y[Aib]QGTFTSDCSKYLDERAAKDFVQWLLDHHPSSGQPPPS (bridge 16-20) [Triple agonist of SEQ ID NO: 72]	11.5	1	1.6
H[Aib]EGTFTSDYSIAMDEIHQKDFVNWLLAQKC (bridge 16-20) [Triple agonist of SEQ ID NO: 79]	41.5	4.9	1.4
Y[Aib]QGTFTSDYSKYLDECRAKDFVQWLLDHHPSSGQPPPS (bridge 16-20) [Triple agonist of SEQ ID NO: 66]	15.8	172	17.2
Y[Aib]QGTFTSDYSKYLDEKRAKDFVQWLLDHHPSSGQPPPSC (bridge 16-20) [Triple agonist of SEQ ID NO: 76]	10.3	47.6	11.7
Y[Aib]QGTFTSDYSKCLDEKAAKEFVQWLLDHHPSSGQPPPS (bridge 16-20) [Triple agonist of SEQ ID NO: 68]	27.9	8.8	107
Y[Aib]QGTFTSDYSKYLDECAAKDFVQWLLDHHPSSGQPPPS (bridge (positions not given here); ends not checked; also: ring formation between underlined amino acids, places not given here) [Triple agonist of SEQ ID NO: 67]	28.5	46.2	39.8
H[Aib]QGTFTSDVSKYLDGQAAKEFVAWLLKGC [Triple agonist of SEQ ID NO: 7]	13.7	< 0.1	< 0.1
H[Aib]EGTFTSDYSIAMDEIHQKDFVDWLLAEKC (bridge 16-20) [Triple agonist of SEQ ID NO: 80]	8.1	0	0.1
H[Aib]QGTFTSDVSKYLDGQAAQEFVAWLLKGC [Triple agonist of SEQ ID NO: 8]	14.2	0.1	< 0.1
H[Aib]QGTFTSDYSKYLDEKRQKEFVQWLLDTKC (bridge 16-20) [Triple agonist of SEQ ID NO: 78]	51	14	0.12
Y[Aib]QGTFTSDYSKCLDERAAKEFVQWLLDHHPSSGQPPPS (bridge 16-20) [Triple agonist of SEQ ID NO: 69]	24.3	9.6	62.8
{Acetyl(2-(4-imidazolyl))}-[Aib]QGTFTSDCSKYLDERAAQDFVQWLLDGGPSSGAPPPS [Triple agonist of SEQ ID NO: 63]	15.3	< 0.1	< 0.1
Y[Aib]QGTFTSDYSKYLDEKAAKEFVQWLLDHHPSSGQPPPSC (bridge 16-20) [Triple agonist of SEQ ID NO: 75]	35.1	8.5	18
{Acetyl(2-(4-imidazolyl))}-[Aib]QGTFTSDYSKYLDECRAKEFVQWLLDHHPSSGQPPPS (bridge 15-19) [Triple agonist of SEQ ID NO: 73]	22.6	5.4	3
Y[Aib]QGTFTSDYSKYLDERACKDFVQWLLDHHPSSGQPPPS (bridge 16-20) [Triple agonist of SEQ ID NO: 71]	90.1	12.7	94.7
{Acetyl(2-(4-imidazolyl))}-[Aib]QGTFTSDYSKCLDEKRAKEFVQWLLDHHPSSGQPPPS (bridge 15-19) [Triple agonist of SEQ ID NO: 74]	12.9	0.9	1
Y[Aib]QGTFTSDYSKCLDEKRAKDFVQWLLDHHPSSGQPPPS (bridge 16-20) [Triple agonist of SEQ ID NO: 70]	15.1	71.3	64.4
